Target: porcine CSF1 fused to an antibody Fc region (pCSF1-Fc), produced in egg white of transgenic hens (porcine)
Assay: non-reducing SDS-PAGE; pCSF1-Fc purified from egg white (MabSelect SuRe, SEC), non-reducing SDS-PAGE stained with Instant Blue

Which stoichiometry N does the source give for “porcine CSF1 fused to an antibody Fc region (pCSF1-Fc), produced in egg white of transgenic hens (Fc fusion)” here?
The stoichiometry N was 2.

— article PMC6311007
